Data set [1] has as its target T1, N-terminally SNAP-tagged human dopamine D2L receptor (human), P14416.
T1 chain: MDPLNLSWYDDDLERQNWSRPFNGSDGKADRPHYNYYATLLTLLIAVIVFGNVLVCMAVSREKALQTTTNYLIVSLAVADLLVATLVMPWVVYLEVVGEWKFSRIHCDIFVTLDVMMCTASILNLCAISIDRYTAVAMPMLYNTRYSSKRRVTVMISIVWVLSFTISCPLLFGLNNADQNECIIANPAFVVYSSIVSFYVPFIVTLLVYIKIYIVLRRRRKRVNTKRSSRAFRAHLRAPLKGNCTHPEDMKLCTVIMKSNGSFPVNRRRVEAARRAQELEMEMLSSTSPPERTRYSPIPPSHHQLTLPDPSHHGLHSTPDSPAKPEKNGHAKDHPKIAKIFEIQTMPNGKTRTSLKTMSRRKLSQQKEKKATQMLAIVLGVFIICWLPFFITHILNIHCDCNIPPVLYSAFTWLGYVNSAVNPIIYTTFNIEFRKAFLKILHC
Briefly: single-molecule TIRF microscopy (intensity distribution of fluorescent spots); Alexa546-BG-labelled SNAP-D2L on living CHO cells, incubated 1 h with the bivalent antagonists 2a or 2b at 10-fold Ki. As to conditions: remark: other sources report otherwise.

The target in data set [2] is T1, N-terminally SNAP-tagged human dopamine …. Briefly: single-molecule TIRF microscopy (apparent lifetime of particle colocalization); Alexa546-labelled SNAP-D2L on living CHO cells with the bivalent ligand 2a; 120 trajectories, one-phase exponential decay; apparent. As to conditions: remark: other sources report otherwise.
The target is the same in data set [3]. Description: single-molecule TIRF microscopy (apparent lifetime of particle colocalization); Alexa546-labelled SNAP-D2L on living CHO cells with the monovalent ligand 1a; 120 trajectories, one-phase exponential decay; apparent. Particulars: remark: other sources report otherwise.
For data set [4] the target is unchanged. Description: single-molecule TIRF microscopy (intensity distribution of fluorescent spots); receptors on living CHO cells labelled 1 h at 37 °C with a fluorescent (Cy3B) antagonist (1c, 4a or 4b) at 10-fold Ki; spots fitted with a mixed Gaussian model. Particulars: remark: other sources report otherwise.
For data set [5] the target is unchanged. Briefly: single-molecule TIRF microscopy (lifetime of transient dimers from intensity trajectories); Alexa546-labelled SNAP-D2L on living CHO cells, ligand-free; 120 dimers whose trajectories show intensity doubling and return; one-phase exponential fit. As to conditions: remark: other sources report otherwise.
Data set [6] shares this target. Description: single-molecule TIRF microscopy (intensity distribution of fluorescent spots); Alexa546-BG-labelled SNAP-D2L on living CHO cells, incubated 1 h with the unsymmetrical control ligands 3a or 3b (one pharmacophore, one non-binding motif) at 10-fold Ki. As to conditions: remark: other sources report otherwise.
The target is the same in data set [7]. Briefly: single-molecule TIRF microscopy (apparent lifetime of particle colocalization); Alexa546-labelled SNAP constructs on living CHO cells, ligand-free; time from the beginning of tracking to a one-step intensity change, 120 trajectories, one-phase exponential decay; apparent. As to conditions: remark: other sources report otherwise.
Data set [8] shares this target. Description: single-molecule TIRF microscopy (intensity distribution of fluorescent spots); living stably transfected CHO cells, SNAP-tag labelled with 1 uM Alexa546-BG, ligand-free; spots of the first 10 frames fitted with a mixed Gaussian model; room temperature (24.0 ± 0.3 °C), imaging buffer pH 7.4; SNAP-D2L at 0.67 ± 0.03 spots um^-2. Particulars: remark: other sources report otherwise.

Data set [9] concerns the molecule itself. Briefly: single-molecule TIRF microscopy (intensity distribution of fluorescent spots); receptors on living CHO cells labelled 1 h at 37 °C with a fluorescent (Cy3B) antagonist (1c, 4a or 4b) at 10-fold Ki; spots fitted with a mixed Gaussian model.

B1: N-terminally SNAP-tagged human dopamine D2L receptor, P14416 1-443 (receptor)
chain: T1 chain
modifications: here or on the partner: Alexa546 covalently on the SNAP-tag through benzylguanine (Alexa546-BG) in the SNAP-labelling experiments; Alexa546 covalently on the SNAP-tag through benzylguanine (Alexa546-BG) in the SNAP-labelling experiments
Broadly, the stoichiometry N is the number of molecules, sites or subunits per partner or assembly. Turning to B1, in [1], the percent of fluorescent spots that are dimers, with bivalent antagonist 2a turned out to be 66% and the percent of fluorescent spots that are dimers, with bivalent antagonist 2b came to 58%. Further, in data set [2], the apparent colocalization lifetime (tau), with bivalent ligand 2a amounted to 1.16 s. Also, in data set [3], the apparent colocalization lifetime (tau), with monovalent ligand 1a was found to be 0.42 s. In data set [4], the percent of fluorescent spots that are dimers, labelled with antagonist 1c was determined as 26% and the percent of fluorescent spots that are monomers, labelled with antagonist 1c is 74%. In data set [5], the half-life (t1/2) of the transient dimer is 0.35 s and the lifetime of the transient dimer came to 0.5 s. Moreover, in data set [6], the percent of fluorescent spots that are dimers, with control ligand 3a was determined as 33%; the percent of fluorescent spots that are dimers, with control ligand 3b is 34%; the percent of fluorescent spots that are monomers, with control ligand 3a was 67%; the percent of fluorescent spots that are monomers, with control ligand 3b is 66%. Besides, the apparent colocalization lifetime (tau) in [7] is 0.46 s. In data set [8], this molecule gave a percent of fluorescent spots that are dimers of 30%, a percent of fluorescent spots that are monomers of 70% and a stoichiometry N of 2.

B2: human dopamine D3 receptor (receptor, UniProt P35462 1-400, looked up)
chain: MASLSQLSGHLNYTCGAENSTGASQARPHAYYALSYCALILAIVFGNGLVCMAVLKERALQTTTNYLVVSLAVADLLVATLVMPWVVYLEVTGGVWNFSRICCDVFVTLDVMMCTASILNLCAISIDRYTAVVMPVHYQHGTGQSSCRRVALMITAVWVLAFAVSCPLLFGFNTTGDPTVCSISNPDFVIYSSVVSFYLPFGVTVLVYARIYVVLKQRRRKRILTRQNSQCNSVRPGFPQQTLSPDPAHLELKRYYSICQDTALGGPGFQERGGELKREEKTRNSLSPTIAPKLSLEVRKLSNGRLSTSLKLGPLQPRGVPLREKKATQMVAIVLGAFIVCWLPFFLTHVLNTHCQTCHVSPELYSATTWLGYVNSALNPVIYTTFNIEFRKAFLKILSC
notes: human dopamine D3 receptor, non-tagged; source: dihydrofolate reductase gene-deficient CHO-K1 cells, stably expressing, in the membrane of living cells
Take B2: in data set [9], the “stoichiometry N” value stood at 2.

Values taken from article PMC5018964, “Visualization and ligand-induced modulation of dopamine receptor dimerization at the single molecule level” (Scientific Reports, 2016).
